Measurements as given in paper PMC10842050 (Journal of molecular biology, 2023).

Columns and labels:
[1] = target: T1, P22 portal protein gp1 (bacteriophage P22), P26744; assay: cryo-EM structure; conditions: remark: other sources report otherwise
T1 chain: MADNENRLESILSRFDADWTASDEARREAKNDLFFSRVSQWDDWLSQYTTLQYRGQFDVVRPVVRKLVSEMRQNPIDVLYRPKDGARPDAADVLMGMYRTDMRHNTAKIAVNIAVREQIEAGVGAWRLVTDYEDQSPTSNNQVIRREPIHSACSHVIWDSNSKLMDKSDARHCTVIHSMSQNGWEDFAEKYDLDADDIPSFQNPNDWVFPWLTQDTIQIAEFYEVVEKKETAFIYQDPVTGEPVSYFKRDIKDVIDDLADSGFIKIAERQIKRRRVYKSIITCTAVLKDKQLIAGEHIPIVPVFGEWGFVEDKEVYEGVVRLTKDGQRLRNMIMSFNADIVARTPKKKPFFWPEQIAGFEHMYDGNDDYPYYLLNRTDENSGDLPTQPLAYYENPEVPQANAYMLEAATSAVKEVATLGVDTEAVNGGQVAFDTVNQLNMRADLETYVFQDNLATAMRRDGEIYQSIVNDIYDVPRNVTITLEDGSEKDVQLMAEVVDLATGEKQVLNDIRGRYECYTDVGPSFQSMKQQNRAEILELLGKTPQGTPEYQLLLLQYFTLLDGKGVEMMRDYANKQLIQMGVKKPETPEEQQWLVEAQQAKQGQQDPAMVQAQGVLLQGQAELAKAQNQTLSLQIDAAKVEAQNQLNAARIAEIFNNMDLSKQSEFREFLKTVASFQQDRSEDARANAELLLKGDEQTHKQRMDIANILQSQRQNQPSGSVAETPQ

[2] = target: the molecule itself; assay: cryo-EM structure

Row | Binder | stoichiometry N [1] | stoichiometry N [2]
1 | P22 portal protein gp1, P26744 1-725 (natural protein) MADNENRLESILSRFDADWTASDEARREAKNDLFFSRVSQWDDWLSQYTTLQYRGQFDVVRPVVRKLVSEMRQNPIDVLYRPKDGARPDAADVLMGMYRTDMRHNTAKIAVNIAVREQIEAGVGAWRLVTDYEDQSPTSNNQVIRREPIHSACSHVIWDSNSKLMDKSDARHCTVIHSMSQNGWEDFAEKYDLDADDIPSFQNPNDWVFPWLTQDTIQIAEFYEVVEKKETAFIYQDPVTGEPVSYFKRDIKDVIDDLADSGFIKIAERQIKRRRVYKSIITCTAVLKDKQLIAGEHIPIVPVFGEWGFVEDKEVYEGVVRLTKDGQRLRNMIMSFNADIVARTPKKKPFFWPEQIAGFEHMYDGNDDYPYYLLNRTDENSGDLPTQPLAYYENPEVPQANAYMLEAATSAVKEVATLGVDTEAVNGGQVAFDTVNQLNMRADLETYVFQDNLATAMRRDGEIYQSIVNDIYDVPRNVTITLEDGSEKDVQLMAEVVDLATGEKQVLNDIRGRYECYTDVGPSFQSMKQQNRAEILELLGKTPQGTPEYQLLLLQYFTLLDGKGVEMMRDYANKQLIQMGVKKPETPEEQQWLVEAQQAKQGQQDPAMVQAQGVLLQGQAELAKAQNQTLSLQIDAAKVEAQNQLNAARIAEIFNNMDLSKQSEFREFLKTVASFQQDRSEDARANAELLLKGDEQTHKQRMDIANILQSQRQNQPSGSVAETPQ | 12 | 
2 | P22 tail needle gp26 (natural protein, bacteriophage P22) MADPSLNNPVVIQATRLDASILPRNVFSKSYLLYVIAQGTDVGAIAGKANEAGQGAYDAQVKNDEQDVELADHEARIKQLRIDVDDHESRITANTKAITALNVRVTTAEGEIASLQTNVSALDGRVTTAENNISALQADYVSKTATTSQSLASPLNVTTSYSVGGKKVLGARQTGWTAATGTANKGVFDADLTFAVSDTYTQSEIQAIANALITERRRTKALEDALRAHGLID |  | 3
3 | P22 head-to-tail adapter gp4 (natural protein, bacteriophage P22) MQIKTKGDLVRAALRKLGVASDATLTDVEPQSMQDAVDDLEAMMAEWYQDGKGIITGYVFSDDENPPAEGDDHGLRSSAVSAVFHNLACRIAPDYALEATAKIIATAKYGKELLYKQTAISRAKRAPYPSRMPTGSGNSFANLNEWHYFPGEQNADSTTPHDEGNG |  | 12
